Patent US20170101464A1

Target: hTEM8-AP (UniProt Q9H6X2)
Assay: Biacore affinity measurement, Fab

Sequence of UniProt Q9H6X2 (Q9H6X2 33-321): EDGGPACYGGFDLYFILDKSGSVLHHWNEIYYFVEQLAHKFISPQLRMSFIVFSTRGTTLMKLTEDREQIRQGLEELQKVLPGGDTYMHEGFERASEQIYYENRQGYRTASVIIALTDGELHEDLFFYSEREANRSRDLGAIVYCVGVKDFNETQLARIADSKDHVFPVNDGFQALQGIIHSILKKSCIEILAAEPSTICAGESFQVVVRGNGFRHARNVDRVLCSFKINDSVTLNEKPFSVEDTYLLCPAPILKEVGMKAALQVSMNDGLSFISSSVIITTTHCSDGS

Kd: 0.0591 nM
koff: 0.00018 s⁻¹
kon: 3.05e+06 M⁻¹ s⁻¹
B1: M825 anti-TEM8 Fab (Fab, V domains shown)
VH: QVQLVQSGAEVKKPGTSVKVSCKVPGYTFSSYAISWVRQAPGQGLEWMGGIIPIFGTTNYAQKFQGRVTITGEESTSTVYMELSSLRSEDTAVYYCARDTDYMFDYWGQGTLVTVSS
VL: SSELTQDPVVSVALGETVSITCQGDNLRDFYASWYQQKPGQAPLLVMYGKNRRPSGIPDRFSGSTSGNTLSLTITGAQAEDEADYYCSSRDNSKHVVFGGGTKVTVL
